Laboratory results reported in PMC6016464, “Folding and binding pathways of BH3-only proteins are encoded within their intrinsically disordered sequence, not templated by partner proteins” (The Journal of Biological Chemistry, 2018).
Where no end group is shown, it is not given here. The star is where a group is joined. TAMRA = 5-carboxytetramethylrhodamine, CN(C)c1ccc2c(-c3ccc(C(=O)*)cc3C(=O)[O-])c3ccc(=[N+](C)C)cc-3oc2c1

B1: BID I93A peptide, TAMRA-labelled (peptide, UniProt P70444 76-110, looked up)
chain: {TAMRA}-SESQEEIIHNIARHLAQAGDEMDHNIQPTLVRQLA
notes: BID, mouse, residues 76-110, UniProt P70444; source: synthetic peptide (Biomatik)
B2: BID M97A peptide, TAMRA-labelled (peptide, UniProt P70444 76-110, looked up)
chain: {TAMRA}-SESQEEIIHNIARHLAQIGDEADHNIQPTLVRQLA
notes: as for B1
B3: BID E96G peptide, TAMRA-labelled (peptide, UniProt P70444 76-110, looked up)
chain: {TAMRA}-SESQEEIIHNIARHLAQIGDGMDHNIQPTLVRQLA
notes: as for B1
B4: BID I86A peptide, TAMRA-labelled (peptide, UniProt P70444 76-110, looked up)
chain: {TAMRA}-SESQEEIIHNAARHLAQIGDEMDHNIQPTLVRQLA
notes: as for B1
B5: BID I82A peptide, TAMRA-labelled (peptide, UniProt P70444 76-110, looked up)
chain: {TAMRA}-SESQEEAIHNIARHLAQIGDEMDHNIQPTLVRQLA
notes: as for B1
B6: BID H99A peptide, TAMRA-labelled (peptide, UniProt P70444 76-110, looked up)
chain: {TAMRA}-SESQEEIIHNIARHLAQIGDEMDANIQPTLVRQLA
notes: as for B1
B7: BID H99G peptide, TAMRA-labelled (peptide, UniProt P70444 76-110, looked up)
chain: {TAMRA}-SESQEEIIHNIARHLAQIGDEMDGNIQPTLVRQLA
notes: as for B1

Biological target: T1, A1 protein (mouse, residues 1-152, P104K C113S, used as wild type) (mouse)
T1 sequence (Q07440 1-152 with P104K C113S, looked up): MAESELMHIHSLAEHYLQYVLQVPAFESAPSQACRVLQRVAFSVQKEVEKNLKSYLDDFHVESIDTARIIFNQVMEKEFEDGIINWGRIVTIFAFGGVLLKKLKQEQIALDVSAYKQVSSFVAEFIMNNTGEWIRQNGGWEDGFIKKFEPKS
Assay: stopped-flow fluorescence kinetics + other: fluorescence dissociation kinetics with competitor; Kd calculated as the ratio koff/kon of the kinetic rate constants; 25 °C; 50 mM sodium phosphate, 0.05% (v/v) Tween 20, pH 7.0
Conditions: not given

Row | Binder | Kd
1 | B1 | 440 pM
2 | B2 | 190 pM
3 | B3 | 98 pM
4 | B4 | 7600 pM
5 | {TAMRA}-RVEEEEWARGIGAQLRRAADDLNAQYERRRQEEQH [PUMA E136G peptide (on the M144A wild type), TAMRA-labelled] | 290 pM
6 | {TAMRA}-RVEEEEWARAIGAQLRRAADDLNAQYERRRQEEQH [PUMA E136A peptide (on the M144A wild type), TAMRA-labelled] | 46 pM
7 | {TAMRA}-RVEEEEWAREIGGQLRRAADDLNAQYERRRQEEQH [PUMA A139G peptide (on the M144A wild type), TAMRA-labelled] | 330 pM
8 | {TAMRA}-RVEEEEWAREIGAQLRRAADDLNAQAERRRQEEQH [PUMA Y152A peptide (on the M144A wild type), TAMRA-labelled] | 490 pM
9 | {TAMRA}-RVEEEEWAREIGAQLRRAADDLNAQYEARRQEEQH [PUMA R154A peptide (on the M144A wild type), TAMRA-labelled] | 111 pM
10 | {TAMRA}-RVEEEEWAREIGAQLRRAADDLNGQYERRRQEEQH [PUMA A150G peptide (on the M144A wild type), TAMRA-labelled] | 444 pM
11 | {TAMRA}-RVEEEAWAREIGAQLRRAADDLNAQYERRRQEEQH [PUMA E132A peptide (on the M144A wild type), TAMRA-labelled] | 88 pM

Biological target: T2, MCL-1 (mouse, residues 152-308) (mouse)
T2 construct: remnant of thrombin cleavage at the N-terminus of MCL-1; MCL-1, mouse, residues 152-308, UniProt P97287; source: E. coli C41 pLysS, purified (Ni2+ agarose, thrombin cleavage, ion exchange, Superdex G75 gel filtration); not shown: His6, N-terminal, cleaved
T2 chain: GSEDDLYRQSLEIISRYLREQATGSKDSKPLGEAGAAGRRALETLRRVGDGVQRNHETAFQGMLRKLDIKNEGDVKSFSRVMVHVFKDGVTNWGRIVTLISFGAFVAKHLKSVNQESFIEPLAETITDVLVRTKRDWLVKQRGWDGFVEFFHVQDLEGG
Assay: as above
Conditions: both partners purified

Row | Binder | Kd
12 | B5 | 650 pM
13 | B6 | 120 pM
14 | B7 | 400 pM
15 | B1 | 96000 pM
16 | B2 | 3800 pM
17 | B3 | 900 pM
18 | B4 | 35000 pM

Biological target: T1, A1 protein (mouse, residues 1-152, P104K C113S, used as wild type) (mouse)
Assay: stopped-flow fluorescence kinetics; association; TAMRA-labelled peptide with folded partner at least 10-fold higher (pseudo-first-order); kon from the gradient of kobs versus partner concentration; 25 °C; 50 mM sodium phosphate, 0.05% (v/v) Tween 20, pH 7.0
Conditions: not given

Row | Binder | kon
19 | B1 | 5.6e+06 M⁻¹ s⁻¹
20 | B2 | 8.1e+06 M⁻¹ s⁻¹
21 | B3 | 7.8e+06 M⁻¹ s⁻¹
22 | B4 | 2.9e+06 M⁻¹ s⁻¹
23 | {TAMRA}-RVEEEEWARGIGAQLRRAADDLNAQYERRRQEEQH [PUMA E136G peptide (on the M144A wild type), TAMRA-labelled] | 8.2e+06 M⁻¹ s⁻¹
24 | {TAMRA}-RVEEEEWARAIGAQLRRAADDLNAQYERRRQEEQH [PUMA E136A peptide (on the M144A wild type), TAMRA-labelled] | 1.04e+07 M⁻¹ s⁻¹
25 | {TAMRA}-RVEEEEWAREIGGQLRRAADDLNAQYERRRQEEQH [PUMA A139G peptide (on the M144A wild type), TAMRA-labelled] | 3.26e+06 M⁻¹ s⁻¹
26 | {TAMRA}-RVEEEEWAREIGAQLRRAADDLNAQAERRRQEEQH [PUMA Y152A peptide (on the M144A wild type), TAMRA-labelled] | 5.1e+06 M⁻¹ s⁻¹
27 | {TAMRA}-RVEEEEWAREIGAQLRRAADDLNAQYEARRQEEQH [PUMA R154A peptide (on the M144A wild type), TAMRA-labelled] | 4.86e+06 M⁻¹ s⁻¹
28 | {TAMRA}-RVEEEEWAREIGAQLRRAADDLNGQYERRRQEEQH [PUMA A150G peptide (on the M144A wild type), TAMRA-labelled] | 4.84e+06 M⁻¹ s⁻¹
29 | {TAMRA}-RVEEEAWAREIGAQLRRAADDLNAQYERRRQEEQH [PUMA E132A peptide (on the M144A wild type), TAMRA-labelled] | 8.8e+06 M⁻¹ s⁻¹

Biological target: T2, MCL-1 (mouse, residues 152-308)
Assay: stopped-flow fluorescence kinetics; association; TAMRA-labelled peptide with folded partner at least 10-fold higher (pseudo-first-order); kon from the gradient of kobs versus partner concentration; 25 °C; 50 mM sodium phosphate, 0.05% (v/v) Tween 20, pH 7.0
Conditions: both partners purified
Method in brief: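 TAMRA-labelled peptide was mixed with mouse MCL-1 (residues 152–308) by stopped-flow in 50 mM sodium phosphate, 0.05% (v/v) Tween 20, pH 7.0, at 25 °C, with the partner at least 10-fold in excess. Fluorescence was excited at 555 nm and collected above 570 nm. At least 15 traces were averaged, points before the 1 ms deadtime were discarded, and single-exponential fits yielded kobs. The association rate constant (kon) is the slope of kobs plotted against partner concentration.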

Row | Binder | kon
30 | B5 | 9.5e+06 M⁻¹ s⁻¹
31 | B6 | 9.2e+06 M⁻¹ s⁻¹
32 | B7 | 9e+06 M⁻¹ s⁻¹
33 | B1 | 4.5e+06 M⁻¹ s⁻¹
34 | B2 | 7.8e+06 M⁻¹ s⁻¹
35 | B3 | 1.09e+07 M⁻¹ s⁻¹
36 | B4 | 4e+06 M⁻¹ s⁻¹

Biological target: T1, A1 protein (mouse, residues 1-152, P104K C113S, used as wild type) (mouse)
Assay: fluorescence dissociation kinetics with competitor; dissociation; preformed complex of TAMRA-labelled peptide and partner protein mixed with excess unlabeled PUMA peptide as competitor; stopped-flow or Cary Eclipse spectrophotometer; 25 °C; 50 mM sodium phosphate, 0.05% (v/v) Tween 20, pH …
Conditions: not given

Row | Binder | koff
37 | B1 | 0.0025 s⁻¹
38 | B2 | 0.0015 s⁻¹
39 | B3 | 0.00077 s⁻¹
40 | B4 | 0.022 s⁻¹
41 | {TAMRA}-RVEEEEWARGIGAQLRRAADDLNAQYERRRQEEQH [PUMA E136G peptide (on the M144A wild type), TAMRA-labelled] | 0.00238 s⁻¹
42 | {TAMRA}-RVEEEEWARAIGAQLRRAADDLNAQYERRRQEEQH [PUMA E136A peptide (on the M144A wild type), TAMRA-labelled] | 0.00048 s⁻¹
43 | {TAMRA}-RVEEEEWAREIGGQLRRAADDLNAQYERRRQEEQH [PUMA A139G peptide (on the M144A wild type), TAMRA-labelled] | 0.00108 s⁻¹
44 | {TAMRA}-RVEEEEWAREIGAQLRRAADDLNAQAERRRQEEQH [PUMA Y152A peptide (on the M144A wild type), TAMRA-labelled] | 0.00251 s⁻¹
45 | {TAMRA}-RVEEEEWAREIGAQLRRAADDLNAQYEARRQEEQH [PUMA R154A peptide (on the M144A wild type), TAMRA-labelled] | 0.00054 s⁻¹
46 | {TAMRA}-RVEEEEWAREIGAQLRRAADDLNGQYERRRQEEQH [PUMA A150G peptide (on the M144A wild type), TAMRA-labelled] | 0.00215 s⁻¹
47 | {TAMRA}-RVEEEAWAREIGAQLRRAADDLNAQYERRRQEEQH [PUMA E132A peptide (on the M144A wild type), TAMRA-labelled] | 0.00077 s⁻¹

Biological target: T2, MCL-1 (mouse, residues 152-308)
Assay: fluorescence dissociation kinetics with competitor; dissociation; preformed complex of TAMRA-labelled peptide and partner protein mixed with excess unlabeled PUMA peptide as competitor; stopped-flow or Cary Eclipse spectrophotometer; 25 °C; 50 mM sodium phosphate, 0.05% (v/v) Tween 20, pH 7.0
Conditions: both partners purified
Method in brief: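 The dissociation rate constant comes from competitor displacement of a preformed complex of TAMRA-labelled peptide and mouse MCL-1 (residues 152–308), mixed with various concentrations of unlabelled competitor peptide. Runs were at 25 °C in 50 mM sodium phosphate, 0.05% (v/v) Tween 20, pH 7.0, read on stopped-flow (kobs > 0.03 s^−1) or Cary Eclipse (kobs < 0.03 s^−1). Fluorescence changes were fit to single exponentials. With sufficient competitor excess, concentration-independent kobs values were averaged as koff.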

Row | Binder | koff
48 | B5 | 0.0062 s⁻¹
49 | B6 | 0.001 s⁻¹
50 | B7 | 0.004 s⁻¹
51 | B1 | 0.43 s⁻¹
52 | B2 | 0.03 s⁻¹
53 | B3 | 0.01 s⁻¹
54 | B4 | 0.14 s⁻¹
